We go through three substances from patent US20190248900A1.

For assay [1], the target named is human PD-1 (NM_005018.2) over-expressed on cells (human) (UniProt Q15116). The experiment in a line: flow cytometry, 18 nM, panel 45D6.
For assay [2] the target is unchanged. The experiment in a line: flow cytometry, 18 nM, panel 49A2.
Assay [3] addresses T1, ITGA6-Fc.
T1 sequence (P23229 whole entry, species assumed, looked up): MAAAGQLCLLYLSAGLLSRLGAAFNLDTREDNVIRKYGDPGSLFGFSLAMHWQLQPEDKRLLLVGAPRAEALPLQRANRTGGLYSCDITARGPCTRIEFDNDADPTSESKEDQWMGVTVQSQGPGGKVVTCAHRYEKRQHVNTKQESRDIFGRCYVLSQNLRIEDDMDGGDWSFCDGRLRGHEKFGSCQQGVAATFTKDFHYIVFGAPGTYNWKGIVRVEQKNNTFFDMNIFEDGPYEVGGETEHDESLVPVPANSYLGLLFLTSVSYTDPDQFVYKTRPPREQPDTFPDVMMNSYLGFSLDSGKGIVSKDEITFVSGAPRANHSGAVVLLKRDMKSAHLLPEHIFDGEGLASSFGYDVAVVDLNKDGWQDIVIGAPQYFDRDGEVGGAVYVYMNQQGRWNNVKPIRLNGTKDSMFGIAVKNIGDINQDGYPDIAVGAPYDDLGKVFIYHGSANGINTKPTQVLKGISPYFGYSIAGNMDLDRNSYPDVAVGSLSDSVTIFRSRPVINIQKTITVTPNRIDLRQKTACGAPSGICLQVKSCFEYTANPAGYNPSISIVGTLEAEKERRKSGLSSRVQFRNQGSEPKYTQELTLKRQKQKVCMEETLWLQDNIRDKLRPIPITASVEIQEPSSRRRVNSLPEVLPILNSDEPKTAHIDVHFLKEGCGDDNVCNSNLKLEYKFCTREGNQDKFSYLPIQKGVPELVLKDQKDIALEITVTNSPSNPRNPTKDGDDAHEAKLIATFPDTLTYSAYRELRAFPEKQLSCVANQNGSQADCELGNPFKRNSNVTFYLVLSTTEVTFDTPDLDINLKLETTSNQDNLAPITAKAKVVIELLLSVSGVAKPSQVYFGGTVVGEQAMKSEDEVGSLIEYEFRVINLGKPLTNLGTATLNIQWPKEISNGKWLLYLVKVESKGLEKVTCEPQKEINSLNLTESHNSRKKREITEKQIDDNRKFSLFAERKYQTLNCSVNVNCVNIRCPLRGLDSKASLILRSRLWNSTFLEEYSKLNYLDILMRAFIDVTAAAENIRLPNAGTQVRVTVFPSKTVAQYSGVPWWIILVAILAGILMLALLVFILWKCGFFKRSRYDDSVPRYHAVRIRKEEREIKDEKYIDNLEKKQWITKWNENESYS
The assay is described as follows: ELISA (control row).

The target of assay [4] is T1, ITGA6-Fc. The experiment in a line: ELISA, 1 ug/ml.

Chain of human PD-1 (NM_005018.2) over-expressed on cells (human) (Q15116 25-288): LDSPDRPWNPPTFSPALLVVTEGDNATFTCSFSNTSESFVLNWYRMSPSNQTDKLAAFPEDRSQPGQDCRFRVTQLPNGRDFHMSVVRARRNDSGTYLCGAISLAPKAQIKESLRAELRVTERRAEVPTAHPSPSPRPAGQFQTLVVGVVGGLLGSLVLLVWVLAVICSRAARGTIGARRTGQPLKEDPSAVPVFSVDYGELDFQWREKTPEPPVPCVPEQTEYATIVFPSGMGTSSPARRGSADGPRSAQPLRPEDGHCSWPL
Chain of Pembrolizumab (antibody) (VH): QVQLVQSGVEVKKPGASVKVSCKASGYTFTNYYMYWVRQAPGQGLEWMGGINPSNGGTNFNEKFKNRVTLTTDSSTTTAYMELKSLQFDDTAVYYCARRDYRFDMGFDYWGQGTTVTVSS
Chain of Pembrolizumab (antibody) (VL): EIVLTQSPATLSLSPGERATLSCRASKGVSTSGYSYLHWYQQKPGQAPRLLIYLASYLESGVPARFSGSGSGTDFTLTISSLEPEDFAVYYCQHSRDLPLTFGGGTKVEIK

In the case of IgG (antibody), the Geometric Mean in assay [1] and in assay [2] was 50 throughout.
Turning to Nivolumab (antibody), the OD490 in assay [3] and in assay [4] was 0.3 each time.
As to Pembrolizumab (antibody), the OD490 in assay [3] and in assay [4] was 0.1 each time.
